Experimental data: PMC314469, “Protein Interaction Networks by Proteome Peptide Scanning” (PLoS Biology, 2004)

Assays:
Assay in all cases: SPOT array
[1] = molecular target: T1, Boi1 SH3 (BOI1_YEAST), P38041
T1 chain: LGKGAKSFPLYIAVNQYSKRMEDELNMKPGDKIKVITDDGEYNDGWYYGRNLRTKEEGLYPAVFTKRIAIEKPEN

[2] = molecular target: T2, Boi2 SH3 (BOI2_YEAST), P39969
T2 chain: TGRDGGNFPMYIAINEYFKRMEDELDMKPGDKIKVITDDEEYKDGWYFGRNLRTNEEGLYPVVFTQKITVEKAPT

[3] = molecular target: T3, Myo5 SH3 (MYO5_YEAST), Q04439
T3 chain: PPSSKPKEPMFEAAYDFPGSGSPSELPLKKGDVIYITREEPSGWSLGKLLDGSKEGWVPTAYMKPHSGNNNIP

[4] = molecular target: T4, Rvs167 SH3 (RV167_YEAST), P39743
T4 chain: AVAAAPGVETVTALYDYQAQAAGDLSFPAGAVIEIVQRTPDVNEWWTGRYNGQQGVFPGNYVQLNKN

[5] = molecular target: Sho1 SH3 (SHO1_YEAST), P40073
Sequence of Sho1 SH3 (SHO1_YEAST), P40073 (P40073 295-366): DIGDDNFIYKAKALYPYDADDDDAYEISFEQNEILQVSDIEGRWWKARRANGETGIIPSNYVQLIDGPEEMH

[6] = molecular target: T5, Yfr024 SH3 (LSB3_YEAST), P43603
T5 chain: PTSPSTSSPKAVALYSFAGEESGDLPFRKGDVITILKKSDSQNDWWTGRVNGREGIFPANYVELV

[7] = molecular target: T6, Yhr016c SH3 (YSC84_YEAST), P32793
T6 chain: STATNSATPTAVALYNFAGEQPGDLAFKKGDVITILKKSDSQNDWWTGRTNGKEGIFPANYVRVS

Binder | normalised SPOT signal, Boehringer light units (BLU); mean over the file's lines of this peptide [1] | normalised SPOT signal, Boehringer light units (BLU); mean over the file's lines of this peptide [2] | normalised SPOT signal, Boehringer light units (BLU); mean over the file's lines of this peptide [3] | normalised SPOT signal, Boehringer light units (BLU); mean over the file's lines of this peptide [4] | normalised SPOT signal, Boehringer light units (BLU); mean over the file's lines of this peptide [5] | normalised SPOT signal, Boehringer light units (BLU); mean over the file's lines of this peptide [6] | normalised SPOT signal, Boehringer light units (BLU); mean over the file's lines of this peptide [7]
EFIVKTIPVPPRDF [YER025W 296-309] | 15 | 13.8 | 115 | 30.4 | 57.2 | 202 | 44.4
EGRSRLFPHSPLGR [YGL122C 259-272] | 14900 | 165 | 141 | 393 | 41.4 | 2220 | 90.9
EFQSKSSPVPPASE [YDR008C 96-109] | 1430 | 26.5 | 78.8 | 83.5 | 34.9 | 7.3 | 49.9
EFLIKEDPDLPPQG [YCL024W 744-757] | 78 | 69.1 | 175 | 134 | 65.4 | 8.1 | 51.8
EFTTREGPHQPIGN [YDR123C 192-205] | 268 | 0 | 79.8 | 29.4 | 43.5 | 9.9 | 34.5
EFPGKKSPRLPHRN [YPR097W 343-356] | 1090 | 42.9 | 368 | 3000 | 71.6 | 8340 | 7160
EFLRKHSPKAPATG [YMR021C 127-140] | 620 | 37.3 | 413 | 126 | 91 | 227 | 13.2
